Results on one substance are retold here after patent publication US20040209257.

The test system of the data set is T1, AcuI restriction endonuclease (recombinant, clone #288) V1M (Acinetobacter calcoaceticus SRW4).
T1 sequence: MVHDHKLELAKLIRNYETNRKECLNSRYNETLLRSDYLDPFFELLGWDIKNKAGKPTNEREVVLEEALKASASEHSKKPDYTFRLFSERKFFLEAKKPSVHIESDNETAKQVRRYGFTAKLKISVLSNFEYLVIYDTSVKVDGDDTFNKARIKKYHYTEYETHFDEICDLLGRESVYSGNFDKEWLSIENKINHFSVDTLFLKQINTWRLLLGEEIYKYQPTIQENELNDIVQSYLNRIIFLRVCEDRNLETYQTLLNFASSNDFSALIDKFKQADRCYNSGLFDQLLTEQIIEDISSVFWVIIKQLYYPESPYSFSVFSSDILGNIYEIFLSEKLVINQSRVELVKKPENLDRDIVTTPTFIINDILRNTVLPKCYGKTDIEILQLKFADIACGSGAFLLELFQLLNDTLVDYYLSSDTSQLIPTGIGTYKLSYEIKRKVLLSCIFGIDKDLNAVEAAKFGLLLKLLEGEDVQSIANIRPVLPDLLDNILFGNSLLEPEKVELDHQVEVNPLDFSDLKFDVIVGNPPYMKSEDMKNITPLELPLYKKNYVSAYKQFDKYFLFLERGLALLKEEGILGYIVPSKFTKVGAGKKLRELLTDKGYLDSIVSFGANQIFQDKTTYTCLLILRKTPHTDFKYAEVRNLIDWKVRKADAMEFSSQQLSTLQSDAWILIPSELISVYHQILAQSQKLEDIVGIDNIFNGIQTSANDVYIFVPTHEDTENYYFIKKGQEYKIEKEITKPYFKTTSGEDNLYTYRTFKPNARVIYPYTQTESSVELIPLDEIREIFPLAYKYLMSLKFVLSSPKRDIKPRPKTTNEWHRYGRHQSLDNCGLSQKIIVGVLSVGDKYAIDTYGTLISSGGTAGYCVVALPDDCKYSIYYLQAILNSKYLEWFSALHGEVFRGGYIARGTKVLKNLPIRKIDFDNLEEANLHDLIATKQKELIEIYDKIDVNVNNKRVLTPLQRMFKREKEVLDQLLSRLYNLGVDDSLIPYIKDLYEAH
Kind of data set: cleavage_in_vitro. The following applies: cell extract; lambda DNA substrate.

As to lambda DNA, the activity (units per gram wet cells) is 17400.
